To fix the notation:
B1: HDV Ribozyme (parent)
chain: GGCCGGCAUGGUCCCAGCCUCCUCGCUGGCGCCGGCUGGGCAACAUUCCGAGGGGACCGUCCCCUCGGUAAUGGCGAAUGGGACCCA

Variants of B1 are the subject of the data set. Nature of the data set: self-cleavage, relative activity (ratio to wild type); higher = more cleavage; co-transcriptional.
Turning to A71C A78U, the self-cleavage came to 0.147.

Consider A70U C85G, for which the self-cleavage was found to be 0.724.

As to U72C C85G, the self-cleavage came out at 0.453.

For the variant U72C C85A, the self-cleavage is 0.633.

As for U69C G81C, the self-cleavage amounted to 0.231.

Consider G73U G76U, for which the self-cleavage amounted to 0.212.

On to U72A G73A, for which the self-cleavage is 0.617.

With U72A G73U, the self-cleavage is 0.612.

As for A71G, the self-cleavage was determined as 0.957.

On to A71U, for which the self-cleavage is 0.93.

As for A71C, the self-cleavage is 0.84.

Turning to U69G A77C, the self-cleavage is 0.369.

Regarding A71G G80U, the self-cleavage was 0.196.

Consider G73A G74U, for which the self-cleavage was found to be 0.174.

As for G73A G74A, the self-cleavage came to 0.248.

Take G73A G74C: the self-cleavage turned out to be 0.176.

As to U69C G80U, the self-cleavage was determined as 0.0898.

U69G C75U: the self-cleavage amounted to 0.0615.

A70G C84A: the self-cleavage was found to be 0.853.

Turning to G73U G80A, the self-cleavage came out at 0.0839.

Regarding U72G G80A, the self-cleavage was found to be 0.185.

For U72G A77U, the self-cleavage was 0.185.

As to G73C G82A, the self-cleavage came to 0.175.

For G73C G82C, the self-cleavage turned out to be 0.175.

G73C G82U: the self-cleavage came out at 0.0707.

In the case of U72A C84A, the self-cleavage was determined as 0.639.

Regarding A71G A87U, the self-cleavage came out at 0.95.

With A71G A87G, the self-cleavage is 1.06.

For the variant A70G C86A, the self-cleavage was determined as 0.743.

On to A71G A83G, for which the self-cleavage worked out at 1.09.

As to G73A C84U, the self-cleavage stood at 0.665.

For U72G G76A, the self-cleavage came out at 0.743.

Turning to U72A G80A, the self-cleavage amounted to 0.169.

For the variant U72A G80C, the self-cleavage came to 0.219.

As for U72G A78U, the self-cleavage was determined as 0.356.

Consider A71U A87C, for which the self-cleavage is 0.913.

Take U69G U72G: the self-cleavage was determined as 0.997.

On to A71C C85G, for which the self-cleavage was found to be 0.554.

As to G74A C86U, the self-cleavage is 0.604.

With A70U C75A, the self-cleavage is 0.0898.

For the variant A70U C75U, the self-cleavage was 0.219.

On to A70U C75G, for which the self-cleavage was found to be 0.231.

As to G73A, the self-cleavage stood at 0.691.

G73U: the self-cleavage came out at 0.382.

As for G73C, the self-cleavage is 0.505.

Regarding U69G G76A, the self-cleavage stood at 0.855.

With U69C G76U, the self-cleavage was 1.29.

As to A71U G82U, the self-cleavage turned out to be 0.248.

In the case of A71U G82C, the self-cleavage was found to be 0.135.

Regarding A70G C75A, the self-cleavage came out at 0.201.

For the variant A70U G81C, the self-cleavage was found to be 0.193.

As to A70U G81A, the self-cleavage is 0.332.

Consider A70U G81U, for which the self-cleavage came out at 0.469.

On to A71G A78C, for which the self-cleavage amounted to 0.138.

Regarding A71U G80A, the self-cleavage was 0.175.

Regarding U72G G74A, the self-cleavage stood at 0.431.

G73C A87U: the self-cleavage worked out at 0.626.

On to G74A C75G, for which the self-cleavage worked out at 0.17.

For G74A C75A, the self-cleavage is 0.0528.

In the case of A71G U72G, the self-cleavage stood at 0.516.

With U72G A87U, the self-cleavage came out at 0.735.

For the variant U72G A87C, the self-cleavage was 0.709.

Consider U69C U79G, for which the self-cleavage was found to be 1.16.

Regarding U69C U79C, the self-cleavage was determined as 0.404.

As to G73C A83G, the self-cleavage worked out at 0.17.

Turning to G73C A83U, the self-cleavage came to 0.348.

With G73C A83C, the self-cleavage came to 0.264.

In the case of A71C A83U, the self-cleavage is 0.297.

In the case of A71C A83G, the self-cleavage is 0.582.

Consider A71C A83C, for which the self-cleavage is 0.229.

In the case of U72G C75G, the self-cleavage turned out to be 0.262.

Consider U72G C75A, for which the self-cleavage came out at 0.0665.

Regarding U72G C75U, the self-cleavage came to 0.0415.

As for A70C G76C, the self-cleavage worked out at 0.796.

A70C G76A: the self-cleavage came to 0.96.

On to A71U A83G, for which the self-cleavage came to 0.677.

On to A71U A83C, for which the self-cleavage is 0.391.

U69G G81U: the self-cleavage stood at 0.374.

With U69G G81C, the self-cleavage came to 0.101.

With A71C G81A, the self-cleavage was 0.309.

With A71C G81C, the self-cleavage is 0.172.

On to G74A A77C, for which the self-cleavage came out at 0.231.

Regarding U72C C86A, the self-cleavage is 0.712.

Take U72C C86U: the self-cleavage was determined as 0.57.

As for G73U G82C, the self-cleavage was determined as 0.157.

As to G73U G82U, the self-cleavage was 0.224.

For the variant A70G G81U, the self-cleavage was found to be 0.0978.

For A70G G81A, the self-cleavage stood at 0.378.

For the variant A71U U72G, the self-cleavage amounted to 0.684.

Take A70C U72A: the self-cleavage came to 0.653.

As to A70C U72G, the self-cleavage worked out at 0.185.

With A71G G76U, the self-cleavage was 1.1.

Consider G73U G74A, for which the self-cleavage was determined as 0.172.

On to U72A A83C, for which the self-cleavage came out at 0.219.

Consider U72A A83U, for which the self-cleavage was 0.166.

With U72A A83G, the self-cleavage turned out to be 0.318.

As to U72G G73U, the self-cleavage was 0.554.

In the case of U72G G73C, the self-cleavage worked out at 0.639.

Regarding A71U G81U, the self-cleavage stood at 0.185.

On to A71U G81C, for which the self-cleavage stood at 0.345.

Take A71U C84G: the self-cleavage is 0.481.

Take A71U C84U: the self-cleavage stood at 0.475.

A71U C84A: the self-cleavage came to 0.862.

Take A70G G73A: the self-cleavage is 0.432.

Consider A70G G73U, for which the self-cleavage is 0.138.

For the variant U69G C84A, the self-cleavage is 0.779.

For U69G C84U, the self-cleavage came out at 0.554.

Consider A70C, for which the self-cleavage turned out to be 0.894.

Turning to A70G, the self-cleavage stood at 0.969.

For the variant A70U, the self-cleavage amounted to 0.953.

On to A70G A77C, for which the self-cleavage was determined as 0.178.

Take A70G A77U: the self-cleavage was 0.426.

On to A70U C84U, for which the self-cleavage amounted to 0.627.

For the variant G74A C85A, the self-cleavage is 0.657.

Turning to A70C G82C, the self-cleavage is 0.

With A70C G82A, the self-cleavage was found to be 0.181.

As to A71U U79C, the self-cleavage was determined as 0.314.

On to A71U U79A, for which the self-cleavage was 0.782.

With U72G C85U, the self-cleavage was 0.644.

For G73U A83C, the self-cleavage is 0.17.

U72C C75U: the self-cleavage was found to be 0.192.

Regarding U72C C75A, the self-cleavage was 0.256.

For the variant U72C G80U, the self-cleavage was found to be 0.0791.

Consider U72A C85G, for which the self-cleavage is 0.831.

As to U72A C85U, the self-cleavage turned out to be 0.764.

As for U72A C85A, the self-cleavage was 0.399.

In the case of A70U C86A, the self-cleavage turned out to be 1.02.

Regarding A70U C86U, the self-cleavage came out at 1.07.

In the case of A70U C86G, the self-cleavage was determined as 0.872.

For A70G A87C, the self-cleavage came out at 0.883.

As to A70G A87U, the self-cleavage stood at 0.928.

On to U72A G82C, for which the self-cleavage came out at 0.208.

For A70C G81A, the self-cleavage stood at 0.453.

As for A70C G81U, the self-cleavage is 0.249.

In the case of G73C G74C, the self-cleavage stood at 0.133.

For A71G C84G, the self-cleavage amounted to 0.465.

On to A71G C84U, for which the self-cleavage was determined as 0.831.

Turning to U69G A78U, the self-cleavage was found to be 0.277.

As to A71C C84U, the self-cleavage turned out to be 0.604.

A71C C84A: the self-cleavage worked out at 0.511.

Consider A71U C85U, for which the self-cleavage is 1.17.

A70U A83U: the self-cleavage stood at 0.237.

Take A70U A83C: the self-cleavage was 0.458.

For the variant A70C U79G, the self-cleavage worked out at 0.554.

On to A70C U79A, for which the self-cleavage came to 0.72.

As for G73U C75G, the self-cleavage was found to be 0.086.

Take U72G C84A: the self-cleavage amounted to 0.6.

Regarding U72G C84G, the self-cleavage was determined as 0.214.

On to A70G A83G, for which the self-cleavage was found to be 0.692.

Regarding A70G A83U, the self-cleavage worked out at 0.511.

Take U72C A83G: the self-cleavage was 0.318.

On to A71U A78U, for which the self-cleavage was 0.185.

For G74A G80A, the self-cleavage is 0.182.

In the case of A71G C86G, the self-cleavage came out at 1.01.

Take A70U G74C: the self-cleavage was 0.237.

U72C G81A: the self-cleavage is 0.356.

U72C G81C: the self-cleavage was 0.271.

Take U72C C84U: the self-cleavage stood at 0.284.

In the case of A71U C86G, the self-cleavage came out at 0.752.

Regarding A71U C86A, the self-cleavage came out at 0.729.

With A71C G82A, the self-cleavage turned out to be 0.111.

Take A71C G82U: the self-cleavage was 0.298.

Consider U72G A83G, for which the self-cleavage is 0.58.

Turning to U72G A83U, the self-cleavage came out at 0.166.

Turning to G73C U79G, the self-cleavage was found to be 0.107.

For G73C U79C, the self-cleavage came out at 0.161.

With U72A C86A, the self-cleavage was found to be 0.79.

Values taken from the RNAGym collection of RNA variant scans (doi:10.7554/elife.80360).
